From patent US12331324B2, “Versatile peroxidases and uses thereof” (Yeda Research and Development Co. Ltd., priority 2021, dated 2025)

Tests used:
[1] = substrate: Nc1c(N=Nc2ccc(S(=O)(=O)CCOS(=O)(=O)O)cc2)c(S(=O)(=O)O)cc2cc(S(=O)(=O)O)c(N=Nc3ccc(S(=O)(=O)CCOS(=O)(=O)O)cc3)c(O)c12; assay: purified protein, by the assay type; settings: other: VA, RB5, optimum pH, 25° C., 0.4 mM H2O2
Method: (§5) VPs production and purification. […] An aliquot of cells was removed and used to inoculate 100 mL of minimal medium in a 1 L flask to an OD600 nm of 0.25-0.30, under the same conditions. The cells completed two growth phases (8-10 hours, reaching OD600 nm˜1-1.5), then the expression medium (450 mL) was inoculated with 50 mL of the pre-culture in a 2 L flask (OD600 nm˜0.1). Cells were incubated for a further ˜60 hours at 30° C. and 225 rpm. Thereafter, cells were centrifuged at 6000 g for 15 min at 4° C., and the supernatant was collected and filtered with a 0.2 μm filter bottle.
(§6) The reaction mixtures contained a specific substrate in 100 mM citrate-phosphate-borate buffer (pH 2, 3, 3.5, 4, 5, 6, 7, 8) and 0.1 mM H2O2. […] The following substrate concentrations and absorption wavelengths were used: ABTS: 2 mM, 418 nm; DMP: 5 mM, 469 nm; RB5: 0.05 mM, 598 nm; VA: 30 mM, 310 nm.

[2] = substrate: COc1cccc(OC)c1O; assay: purified protein, by the assay type; settings: optimum pH, 25° C., 0.4 mM H2O2
Method: as §5, §6

[3] = substrate: COc1ccc(CO)cc1OC; assay: purified protein, by the assay type; settings: other: VA, RB5, optimum pH, 25° C., 0.4 mM H2O2
Method: as §5, §6

[4] = substrate: OO; assay: purified protein, by the assay type; settings: other: H2O2 kinetics with 2 mM ABTS, optimum pH for ABTS, 25° C.
Method: as §5, §6

[5] = substrate: CCn1c(=NN=c2sc3cc(S(=O)(=O)O)ccc3n2CC)sc2cc(S(=O)(=O)O)ccc21; assay: purified protein, by the assay type; settings: optimum pH, 25° C., 0.4 mM H2O2
Method: as §5, §6

[6] = substrate: Nc1c(N=Nc2ccc(S(=O)(=O)CCOS(=O)(=O)O)cc2)c(S(=O)(=O)O)cc2cc(S(=O)(=O)O)c(N=Nc3ccc(S(=O)(=O)CCOS(=O)(=O)O)cc3)c(O)c12; assay: Steady-state kinetics (Michaelis-Menten) of purified VP design 11H with peroxidase substrates; format: biochemical, Pleurotus ostreatus; settings: other: VA, RB5, optimum pH, 25° C., 0.1 mM H2O2
Method: (§1) VPs production and purification. A colony from S. cerevisiae clone containing the VP gene (5H, 8H, 11H, VPL_R4, VPL_2-1B) was picked from an SC drop-out plate, inoculated in 25 mL minimal medium in a 250 flask, and incubated for 48 hours at 30° C. and 225 rpm. An aliquot of cells was removed and used to inoculate 100 mL of minimal medium in a 1 L flask to an OD600 nm of 0.25-0.30, under the same conditions. The cells completed two growth phases (8-10 hours, reaching OD600 nm˜1-1.5), then the expression medium (450 mL) was inoculated with 50 mL of the pre-culture in a 2 L flask (OD600 nm˜0.1). Cells were incubated for a further ˜60 hours at 30° C. and 225 rpm. Thereafter, cells were centrifuged at 6000 g for 15 min at 4° C., and the supernatant was collected and filtered with a 0.2 μm filter bottle.
(§2) Filtrates were subjected to fractional precipitation with ammonium sulfate in two steps: first cut of 50%, followed by centrifugation and elimination of the precipitates, and the second cut of 70%. Buffer A was used to dissolve the pellet, and the dissolved protein solution was shaken overnight at 4° C. for maximal recovery. The dissolved fraction was then centrifuged, filtrated, concentrated, and subjected to overnight dialysis against buffer A. Filtered fractions of the VP proteins after dialysis were uploaded into a HiTrap™ Q HP Column (GE Healthcare Bio-Sciences AB, Uppsala, Sweden) pre-equilibrated with buffer A, through ÄKTA pure protein purification system (GE Healthcare Bio-Sciences AB). Proteins were eluted in a two-step linear gradient from 0 to 1 M NaCl, at a flow rate of 1 ml/min: the first phase of 0-25% over 15 column volumes (75 min) and second phase of 25-100% over 2 column volumes (10 min). The fractions of the peak with the highest VP activity (and absorption at 407 nm) were pooled, concentrated, and dialyzed against 20 mM piperazine buffer pH=5.5 and 150 mM NaCl (buffer B). Protein fractions were then uploaded onto a Superdex 75 Increase 10/300 GL (GE Healthcare Bio-Sciences AB) through the ÄKTA pure system pre-equilibrated with buffer B. The fractions of the peak with the highest VP activity (and absorption at 407 nm) were pooled and dialyzed against buffer A. Pure protein samples were stored at 4° C. Protein concentration was determined using the BCA assay with bovine serum albumin as a standard. The obtained Reinheitszahl values (Rz: Abs407 nm/Abs280 nm), which indicate for the purity of peroxidases, were 1 for 8H (due to high tryptophan content) and above 2 for 5H, 11H, R4 and 2-1B.
(§3) pH activity profiles. For purified 5H, 8H, 11H, and R4, 20 μL protein samples (diluted in buffer A) were transferred into activity 96 plates (in the case of VA and MnSO4, UV-Star plates; Greiner Bio-One GmbH, Kremsmünster, Austria) and then, 180 μL of the reaction mixture were added to each row in the plate, and absorption at the appropriate wavelength (substrate-dependent) was recorded immediately in a kinetic mode in a plate-reader at 25° C. The reaction mixtures contained a specific substrate in 100 mM citrate-phosphate-borate buffer (pH 2, 3, 3.5, 4, 5, 6, 7, 8) and 0.1 mM H2O2. The activities were recorded in triplicate. The following substrate concentrations and absorption wavelengths were used: ABTS: 2 mM, 418 nm; DMP: 5 mM, 469 nm; RB5: 0.05 mM, 598 nm; VA: 30 mM, 310 nm. For manganese, the reaction mixtures contained 60 mM MnSO4 in 100 mM sodium tartrate buffer (pH 3, 3.5, 4, 4.5, 5) and 0.1 mM H2O2, and the Mn^3+-tartrate complex absorption was read at 238 nm. For each protein and substrate, the activities were normalized to the activity at optimal pH for residual activity calculations. Each activity assay was conducted in triplicate.
(§4) Kinetic parameters. Steady-state kinetics were determined for 5H, 8H, 11H and R4, by measuring the activity (initial rates) in increasing concentrations of the substrate, and the KM and Kcat values were calculated by fitting the results to the Michaelis-Menten model (V0=KcatES/(KM+S)). […]

[7] = substrate: COc1cccc(OC)c1O; assay: as above; format: biochemical, Pleurotus ostreatus; settings: optimum pH, 25° C., 0.1 mM H2O2
Method: as §1, §2, §3, §4

[8] = substrate: COc1ccc(CO)cc1OC; assay: as above; format: biochemical, Pleurotus ostreatus; settings: other: VA, RB5, optimum pH, 25° C., 0.1 mM H2O2
Method: as §1, §2, §3, §4

[9] = substrate: OO; assay: as above; format: biochemical, Pleurotus ostreatus; settings: other: H2O2 kinetics with 2 mM ABTS, optimum pH for ABTS, 25° C.
Method: as §1, §2, §3, §4

[10] = substrate: CCn1c(=NN=c2sc3cc(S(=O)(=O)O)ccc3n2CC)sc2cc(S(=O)(=O)O)ccc21; assay: as above; format: biochemical, Pleurotus ostreatus; settings: optimum pH, 25° C., 0.1 mM H2O2
Method: as §1, §2, §3, §4

B1: Pleurotus ostreatus versatile peroxidase VP5, designed variant 5H, SEQ ID NO: 1 (wild type SEQ ID NO: 4; mutations A11S, V15T, A17S, A19E, P26D, D38G, A40Q, … (protein)
chain: VSLPQKRATCSGGQTTSNEACCVLFDLMEDLQKNLFDGGQCGEQAHEALRLTFHDAIGFSPSRGVMGGADGSVITFSDIETNFPANLGIDDIVEAEKSFLQRHNISAGDLVHFAATLAVTNCPGAPRIPFFLGRPPATAPSPPGLVPEPFDSVTDILARMADAGFSPVEVVWLLSAHSVAAADHVDPTIPGTPFDSTPNLFDSQFFIETQLRGTTFPGTGGNPGEVKSPLPGEMRLQSDHLFARDPRTACEWQSMVNDQQKIQDRFRDTLFKMSMLGQNQDDMIDCSDVIPVPPPLTTKPHLPAGKSKTDVEQACATAPFPTLPADPGPPTSVPPVPPA
- Km [1]: 2.9 ± 1.0 µM
- kcat [1]: 0.18 ± 0.04 s⁻¹
- kcat/Km [1]: 62300 ± 25200 M⁻¹ s⁻¹
- Km ([2]; other: high efficiency site): 85.7 ± 16.9 µM
- kcat ([2]; other: high efficiency site): 1.2 ± 0.1 s⁻¹
- kcat/Km ([2]; other: high efficiency site): 14400 ± 3000 M⁻¹ s⁻¹
- Km ([2]; other: low efficiency site): 27,700 ± 7,100 μM
- kcat ([2]; other: low efficiency site): 5.4 ± 0.6 s⁻¹
- kcat/Km ([2]; other: low efficiency site): 190 ± 50 M⁻¹ s⁻¹
- Km [3]: 158 ± 27 µM
- kcat [3]: 0.52 ± 0.02 s⁻¹
- kcat/Km [3]: 3300 ± 600 M⁻¹ s⁻¹
- Km [4]: 197 ± 20 µM
- kcat [4]: 20.3 ± 0.8 s⁻¹
- kcat/Km [4]: 103000 ± 11000 M⁻¹ s⁻¹
- Km ([5]; other: high efficiency site): 1.9 ± 0.4 µM
- kcat ([5]; other: high efficiency site): 1.5 ± 0.1 s⁻¹
- kcat/Km ([5]; other: high efficiency site): 763000 ± 151000 M⁻¹ s⁻¹
- Km ([5]; other: low efficiency site): 765 ± 96 µM
- kcat ([5]; other: low efficiency site): 33.2 ± 1.8 s⁻¹
- kcat/Km ([5]; other: low efficiency site): 43400 ± 5900 M⁻¹ s⁻¹

B2: Pleurotus ostreatus versatile peroxidase VP11, designed variant 11H, SEQ ID NO: 3 (wild type SEQ ID NO: 6; mutations A11S, V15T, A17S, P26D, I27L, L28R, E29D, … (protein)
chain: VTLPQKRATCSGGQTTSNAACCVLFDLRDDLQKNLFDGGQCGEEVHESLRLTFHDAIGFSPTKGGGGADGSVLIFSDTELNFPANLGIDEIVEAQKPFLQRHNISAGDLVQFAGALGVSNCPGAPRIPFFLGRPPATAPSPDGLVPEPFDSVDDILARMADAGFSPVEVVWLLSSHTIAAADHVDPTIPGTPFDSTPSIFDSQFFIETQLRGTLFPGTGGNPGEVESPLPGEIRLQSDHLLARDPRTACEWQSMVDNMPKIQNRFAATMLKMSLLGQNVRDLIDCSDVIPTPPPLVGTAHLPAGKTQSDVEQACATTPFPTIPADPGPVTSVPPVPPS
- Km [6]: 2.0 ± 0.2 µM
- kcat [6]: 0.3 ± 0.01 s⁻¹
- kcat/Km [6]: 152000 ± 20000 M⁻¹ s⁻¹
- Km ([7]; other: high efficiency site): 168 ± 10 µM
- kcat ([7]; other: high efficiency site): 1.91 ± 0.04 s⁻¹
- kcat/Km ([7]; other: high efficiency site): 11400 ± 700 M⁻¹ s⁻¹
- Km ([7]; other: low efficiency site): 11,400 ± 2,000 μM
- kcat ([7]; other: low efficiency site): 6.3 ± 0.4 s⁻¹
- kcat/Km ([7]; other: low efficiency site): 550 ± 100 M⁻¹ s⁻¹
- Km [8]: 2,000 ± 100 μM
- kcat [8]: 1.38 ± 0.03 s⁻¹
- kcat/Km [8]: 680 ± 50 M⁻¹ s⁻¹
- Km [9]: 38.9 ± 6.9 µM
- kcat [9]: 7 ± 0.5 s⁻¹
- kcat/Km [9]: 180000 ± 35000 M⁻¹ s⁻¹
- Km ([10]; other: high efficiency site): 6.3 ± 0.7 µM
- kcat ([10]; other: high efficiency site): 2.0 ± 0.1 s⁻¹
- kcat/Km ([10]; other: high efficiency site): 314000 ± 37000 M⁻¹ s⁻¹
- Km ([10]; other: low efficiency site): 1,100 ± 90 μM
- kcat ([10]; other: low efficiency site): 11.2 ± 0.3 s⁻¹
- kcat/Km ([10]; other: low efficiency site): 10300 ± 900 M⁻¹ s⁻¹
